Assay results taken from patent US7566447B2, “Biocides” (Iogenetics, LLC, priority 2003, dated 2009).

How the values were obtained:
Caco-2 Host Cells = assay: Host cell toxicity assay by LDH release (CYTOTOX 96); assay type: cell-based, human; settings: control medium alone for 2 h, 0-5% non toxic, 5-10% mild toxicity
Description: Host cell toxicity assay was performed by measuring the release of lactate dehydrogenase (LDH) in the medium using a CYTOTOX 96 Non-Radioactive Cytotoxicity Assay kit (Promega, Madison, Wis.). Toxicity was therefore classified as non toxic 0-5% LDH release and mild toxicity 5-10% LDH release (ref).

C. parvum sporozoites = assay: Effect of PLA2 on sporozoite infectivity for Caco-2 monolayers (immunofluorescence assay); assay type: cell-based, Cryptosporidium parvum
Description: (§1) This experiment describes the effects of PLA2 on sporozoite infectivity. Briefly, sporozoites were incubated in an isotonic saline solution (37° C., 30 min) with a range of concentrations of PLA2 isolated from honey bee venom (Sigma-Aldrich Corp., St. Louis, Mo., 1.5 U/μg protein). Control sporozoites were identically incubated in buffer containing concentration-matched BSA but no PLA2. Sporozoites were then washed in medium and inoculated onto replicate Caco-2 human intestinal epithelial cell monolayers. 24 h later, infection was quantified in test and control monolayers by immunofluorescence assay as described herein and the mean percent reduction of infection calculated. […] Percent viability of Caco-2 cells following exposure to PLA2-treated sporozoites (86%) was similar to that of uninoculated control cells (91 %) at 24 hrs, as determined by trypan blue dye exclusion. […] Through fusion of PLA2 to a monoclonal antibody with a high affinity for sporozoites, such as 1E10 or 4H9, lethal concentrations of biocide are deliverable to the sporozoite surface with relatively low amounts of biocide being used.

Caco-2 cells = assay: Caco-2 cell viability by trypan blue dye exclusion; assay type: cell-based, human; settings: 24 hrs, uninoculated control cells 91 %
Description: as §1

Row | Substance | % LDH release (Caco-2 Host Cells; 10 μg/ml) [%] | PLA2 concentration effective in neutralization (C. parvum sporozoites; preliminary data) [units/ml] | PLA2 concentration achieving highly significant reduction of sporozoite infectivity (C. parvum sporozoites; sporozoites incubated 37° C., 30 min, Caco-2 monolayers, 24 h, P<0.0005) [U/ml] | Percent viability of Caco-2 cells following exposure to PLA2-treated sporozoites (Caco-2 cells) [%] | % LDH release (Caco-2 Host Cells; 100 μg/ml) [%]
1 | b-defensin 1 [βD1] | 0.8 ± 1.0 | – | – | – | –
2 | bee-venom phospholipase A2 [PLA2] | – | < 0.02 | 0.014 | 86 | –
3 | cathelicidin | 1.6 ± 0.3 | – | – | – | 5.6 ± 0.9
